Experimental data from patent publication US20230071609A1 (Genentech, published 2023).
Blank lines part the entries; values can stand above or below the binder they belong to.

Legend:
[1] = molecular target: T1, APOL1 very C-terminal peptide aa 376-398 (human); experiment: overlapping ~20-mer peptides (SPR, western blot); antibody named in paragraph 192
T1 peptide: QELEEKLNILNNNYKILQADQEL
Protocol: Following three TBST washes, anti-mouse (GE Healthcare NA931V, 1:3000) or anti-rabbit HRP (Jackson 711-036-152, 1:8000) was added as secondary antibody. After 1 h, membranes were washed and protein detected using ECL prime (Amersham RPN2232) exposed to MR film (Kodak). Anti-actin HRP-conjugated antibody (clone 13E5, Cell Signaling Technologies 5125S at 1:5000) or calnexin (Abcam Ab22595 at 1:1000) was used as a loading control. For peptide mapping, 2 μl of 1 mM peptides in DMSO were boiled in 5× sample buffer and loaded on 10% Tris-Glycine gel and run using MES buffer. Cell pellets of Sf9 lysates were lysed in native RIPA (NP-40) lysis buffer and run on 10% Tris-Glycine gels.
A 96×96 array-based SPR imaging system (Carterra USA) was used for epitope mapping of anti-ApoL1 monoclonal antibodies. Briefly, purified monoclonal hybridoma antibodies were diluted at 10 μg/ml in 10 mM sodium acetate buffer pH 4.5. Using amine coupling, antibodies were directly immobilized onto a SPR sensorprism CMD 200M chip (XanTec Bioanalytics, Germany) using a Continuous Flow Microspotter (Carterra, USA) to create an array of antibodies. After coupling, the antibodies were blocked with ethanolamine, and primed with running buffer (10 mM HEPES, pH 7.4, 150 mM NaCl, 3 mM EDTA, and 0.005% Tween 20). Epitope mapping was performed by flowing 100 nM of different peptides of APOL1 across the immobilized anti-APOL1 antibodies on the biosensor chip at 25° C. in a running buffer of 10 mM HEPES, pH 7.4, 150 mM NaCl, 3 mM EDTA, and 0.005% Tween 20. After each flow through of the APOL1 peptide, the chip surface was regenerated using 10 mM glycine, pH 2.0.

[2] = molecular target: T2, endogenous human APOL1 (wild-type immortalized podocytes; also JHH-1 cells, kidney and liver tissue) (human, UniProt O14791 28-398); experiment: podocyte flow cytometry
T2 construct: whole, on cells; Cell or tissue and permeabilization are told under assay; also called podocyte APOL1; endogenous APOL1
T2 sequence (looked up): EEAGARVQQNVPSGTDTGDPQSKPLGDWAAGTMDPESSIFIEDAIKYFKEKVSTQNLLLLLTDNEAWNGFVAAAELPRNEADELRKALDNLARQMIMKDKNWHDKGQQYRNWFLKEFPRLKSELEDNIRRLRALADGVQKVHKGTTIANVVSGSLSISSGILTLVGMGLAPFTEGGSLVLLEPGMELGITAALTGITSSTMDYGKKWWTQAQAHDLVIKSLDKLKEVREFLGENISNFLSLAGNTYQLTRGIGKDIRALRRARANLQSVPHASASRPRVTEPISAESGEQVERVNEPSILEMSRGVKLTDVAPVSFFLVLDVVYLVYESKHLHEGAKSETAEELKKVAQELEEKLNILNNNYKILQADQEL
Protocol: In FIG. 25A, live WT (left) or APOL1 KO (right) podocytes were incubated on ice for 1 h (without fixation or permeabilization) with 2.5 μg/ml 3.6D12 (an APOL2 cross-reactive mAb). “2° Ab” is Alexa488 anti-mouse secondary antibody alone; “—IFNγ” is untreated; “+IFNγ” is IFNγ-treated cells. There is a shift on WT, but not KO cells (which express APOL2 but not APOL1). […] Thus, the shift seen with 3.6D12 in WT cells must represent APOL1, and increases with IFNγ, as expected.
Cells were harvested with 5 mM EDTA in PBS, washed once with growth media and twice with PBS. Approximately 0.5×10⁶/m1 of cells resuspended in PBS were incubated with anti-APOL1 antibodies for 1 h on ice. Following two PBS washes, 2 μg/ml of Alexa488 anti-mouse or anti-rabbit (Invitrogen A11029 and A21206, respectively) was used for 1 h on ice for detection. Cells were washed twice in PBS and resuspended in PBS with 1 μg/ml propidium iodide. Signals were read in a FACSCalibur3 (Becton Dickinson), with the exception of FIG. 8A and FIG. 14, which used a FACSCelesta, and data was analyzed using FlowJo v8.4.5. Mean fluorescence intensities were plotted in PRISM v7 after subtraction of secondary antibody alone background. For low pH experiments, cells were incubated with the antibodies in the presence of PBS pH 7.0 or PBS pH 5.5 for an hour on ice and detected with secondary antibodies at neutral pH.

[3] = molecular target: T3, iAPOL1-G0 in podocytes (EIK variant, doxycycline-inducible, in APOL1 KO podocytes) (human, UniProt O14791 29-398); experiment: immunoelectron microscopy, iAPOL1-G0 podocytes, 25 µg/ml
T3 construct: Stably re-expressed untagged APOL1 isoform A in APOL1 KO clone 89401-3; also called iAPOL1-G0 podocytes; iAPOL1 podocytes
T3 chain: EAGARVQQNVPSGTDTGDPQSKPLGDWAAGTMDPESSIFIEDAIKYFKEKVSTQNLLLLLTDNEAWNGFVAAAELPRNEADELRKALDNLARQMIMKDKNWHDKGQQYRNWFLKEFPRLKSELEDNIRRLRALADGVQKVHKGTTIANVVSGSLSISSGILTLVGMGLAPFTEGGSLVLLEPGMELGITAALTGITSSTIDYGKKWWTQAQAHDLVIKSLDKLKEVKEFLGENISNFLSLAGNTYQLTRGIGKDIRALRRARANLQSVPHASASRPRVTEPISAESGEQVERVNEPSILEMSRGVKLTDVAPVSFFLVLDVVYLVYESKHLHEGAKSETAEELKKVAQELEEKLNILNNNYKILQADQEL

binding result [1]: binds
B1: antibody 4.12E5 (antibody, V domains shown)
VH: EVQLQQSGPELVKTGASVKISCKASGYSFTGYFMHWVKQSHGKSLEWIGYISCYNGASVYNQRFKGKATFTIDTSSSTAYMQFNSLTSEDSAVYYCARDVLRYPRYAVDYWGQGTSVTVSS
VL: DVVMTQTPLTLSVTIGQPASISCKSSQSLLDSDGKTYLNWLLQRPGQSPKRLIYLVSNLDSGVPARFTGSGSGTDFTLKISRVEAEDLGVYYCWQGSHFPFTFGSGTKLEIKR
notes: Mouse mAb, cloned as murine IgG2a LALAPG

B2: antibody 3.6D12 (antibody, V domains shown)
VH: EVMLVESGGGLVRPGGSLKLSCTASGFTFSRCAMSWVRQTPEKRLEWVSAISRDSTYTYYSDSVKGRFTVSRDNAKNTLYLQMSSLRSEDTAMYYCARQIDDYYVDALDYWGQGTSVTVSS
VL: DVQITQSPSYLAASPGETITINCRASKIISKYLAWYQEKPGKTIKLLIYSGFTLQSGIPSRFSGSGSGTDFTLTISSLEPEDFAMYYCQQHNEYPLTFGAGTKLEIKR
notes: Mouse mAb (Method #3), cloned as murine IgG2a LALAPG; Early screens used hybridoma-purified antibody; also called mAb 3.6D12
binding result [2]: binds

binding result [3]: binds
B3: rabbit monoclonal antibody 5.17D12 (antibody, V domains shown)
VH: QSLEESGGDLVKPGASLTLTCTASGFSFSSNYYMCWVRQAPGKGLEWIACVYVGSGGSTYYASWAKGRFTFSKTSSTTWTLQMTSLTAADTATYFCARDLSYAGDLWGPGTLVTVSS
VL: DPVMTQTPASVSEPVGGTVTINCQASESISSYLAWYQQKPGQPPKLLIYGASNLASGVPSRFKGSGSGTEYTLTISDLECDDAATYYCQSAYYSNSGGHAFGGGTEVVVKG
notes: Rabbit mAb (Method #5), recombinant; also called rabmab 5.17D12
